Where two headings read alike, the source gives them in different places.

What all share (experiment): cryo-EM structure
The target in experiment [1] is Angavokeley (AngV) fusion (F) protein ectodomain (Angavokeley virus (AngV)).
The target is the same in experiment [2]. The source holds these as a separate data set.
In experiment [3] the target is Hendravirus alpha2 -F protein (Hendra virus) (UniProt O89342).

The term stoichiometry N denotes a count of units in the complex or per binding partner. For “Angavokeley (AngV) fusion (F) protein ectodomain (domain or fragment)”, the stoichiometry N came to 6 in experiment [1] and 3 in experiment [2].
On to “Hendravirus alpha2 -F protein (from UniProt O89342 27-494) (domain or fragment)”, for which the stoichiometry N in experiment [3] was determined as 6.

(Values after paper doi:10.64898/2025.12.08.693081.)
